Test results reported in patent publication US20260152567A1 (CSPC MEGALITH BIOPHARMACEUTICAL, published 2026).

Tests used:
[1] = target: T1, cynomolgus monkey full-length CD73 on CHO-K1 cells (cynomolgus monkey, UniProt A0A2K5V5U7 27-549); experiment: flow cytometry on CHO-K1 cells expressing monkey full-length CD73
T1 construct: whole, on cells; also called monkey CD73 protein expressed on cells; cynomolgus monkey CD73 on cell surface
T1 sequence: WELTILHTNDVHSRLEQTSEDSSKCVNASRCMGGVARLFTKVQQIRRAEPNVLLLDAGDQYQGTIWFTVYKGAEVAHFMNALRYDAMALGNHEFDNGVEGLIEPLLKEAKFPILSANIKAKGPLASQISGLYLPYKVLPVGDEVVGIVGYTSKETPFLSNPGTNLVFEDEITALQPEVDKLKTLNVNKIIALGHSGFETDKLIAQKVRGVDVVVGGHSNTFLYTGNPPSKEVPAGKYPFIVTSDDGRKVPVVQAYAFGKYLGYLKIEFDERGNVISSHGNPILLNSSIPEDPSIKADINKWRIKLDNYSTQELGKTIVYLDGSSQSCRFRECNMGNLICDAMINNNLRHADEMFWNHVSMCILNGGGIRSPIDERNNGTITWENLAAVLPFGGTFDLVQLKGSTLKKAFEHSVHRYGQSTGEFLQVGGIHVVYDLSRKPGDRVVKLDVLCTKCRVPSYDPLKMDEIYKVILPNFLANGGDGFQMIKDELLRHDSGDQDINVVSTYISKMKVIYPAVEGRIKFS
Description: In order to characterize the ability of the humanized antibodies prepared in the present application to recognize the cynomolgus monkey CD73 molecule on the cell membrane, CHO-K1 cells capable of stably expressing monkey full-length CD73 were constructed. The cells were seeded in a 96-well plate at a density of 2×10⁶ cells/mL, with 100 μL per well. The plate was washed three times with a PBS buffer, and the supernatant was discarded. The antibodies diluted in a gradient with a PBS buffer were added, and the mixture was incubated at 4° C. for 1 h. The cells were washed 3 times with a PBS buffer, followed by labeling with Alexa Fluor 488-labeled goat anti-human IgG antibody at 4° C. in the dark for 50 min. The cells were then washed 3 times with a PBS buffer, and the fluorescence intensity of the cells was read by a flow cytometer.
As shown in the results in FIG. 5 and Table 10, the prepared humanized antibodies could bind to the monkey CD73 protein expressed on cells in a dose-dependent manner.

[2] = target: T2, recombinant human CD73 protein (human, UniProt P21589 27-547); experiment: cell-based or functional assay
T2 sequence (looked up): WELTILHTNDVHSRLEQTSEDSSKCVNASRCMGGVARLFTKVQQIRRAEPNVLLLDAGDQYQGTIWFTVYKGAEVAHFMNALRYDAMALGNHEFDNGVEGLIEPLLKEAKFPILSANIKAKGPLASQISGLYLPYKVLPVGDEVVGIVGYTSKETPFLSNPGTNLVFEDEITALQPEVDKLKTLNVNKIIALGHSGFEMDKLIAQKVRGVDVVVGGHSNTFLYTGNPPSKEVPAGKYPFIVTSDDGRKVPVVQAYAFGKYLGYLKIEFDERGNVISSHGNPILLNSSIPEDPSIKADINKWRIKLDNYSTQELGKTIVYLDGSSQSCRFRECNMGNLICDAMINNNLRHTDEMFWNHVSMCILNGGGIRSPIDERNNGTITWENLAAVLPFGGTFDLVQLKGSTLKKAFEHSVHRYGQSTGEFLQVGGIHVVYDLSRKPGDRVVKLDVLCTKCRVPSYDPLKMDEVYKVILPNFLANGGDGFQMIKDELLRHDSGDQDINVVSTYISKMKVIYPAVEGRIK

[3] = target: T2, recombinant human CD73 protein; experiment: ELISA, plate coated with recombinant CD73 protein at 1 µg/mL
Description: The affinity of the humanized antibodies to the recombinant CD73 protein was determined using an ELISA method. A elisa plate was coated with the CD73 protein at a concentration of 1 μg/mL. 5-fold gradient dilutions (0-66.7 nM) of the test antibodies were added.

[4] = target: T2, recombinant human CD73 protein; experiment: BLI (Fortebio), human CD73 on HIS1K biosensors, antibody as analyte
Description: The humanized antibody VH and VL were separately constructed into eukaryotic expression vectors containing the hIgG1-kappa constant region with L234A, L235A, P329A and P331S mutations (abbreviated as hIgG1 in the present application). The affinity of all humanized antibodies was assayed in this example. Human CD73 protein was immobilized onto HIS1K biosensors to achieve a binding response threshold of 0.3 nm. After a 120-second baseline step, the sensors were separately immersed in anti-CD73 antibody analytes diluted in a gradient with a 0.02% PBST buffer (each antibody was diluted in a 2-fold gradient with an initial concentration of 25 nM, resulting in 7 concentration gradients). The times for the ligand-analyte binding and dissociation were 120 s and 300 s, respectively. The data of the antigen-antibody affinity were calculated by regression according to the binding curves using an analysis software.

[5] = target: T3, N-terminal portion of the CD73 protein (Homo sapiens (Human), UniProt P21589 27-317, limits assumed); experiment: ELISA, plate coated with CD73 N-terminal protein at 1 µg/mL
T3 construct: also called CD73 N-terminal protein; N-terminus of the CD73 protein
T3 sequence: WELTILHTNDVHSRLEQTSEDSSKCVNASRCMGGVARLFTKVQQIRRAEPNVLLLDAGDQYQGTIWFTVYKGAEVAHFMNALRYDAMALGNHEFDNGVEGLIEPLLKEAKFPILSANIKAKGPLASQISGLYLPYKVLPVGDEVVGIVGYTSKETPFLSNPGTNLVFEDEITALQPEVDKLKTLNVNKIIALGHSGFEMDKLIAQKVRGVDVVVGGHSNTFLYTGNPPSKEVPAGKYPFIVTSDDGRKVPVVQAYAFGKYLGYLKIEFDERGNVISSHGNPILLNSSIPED
Description: In this example, the C-terminal portion (SEQ ID NO. 41) and the N-terminal portion (SEQ ID NO. 42) of the CD73 protein were separately constructed, and the epitopes recognized by the antibodies were detected by ELISA method. Elisa plates were respectively coated with the CD73 N-terminal and C-terminal proteins at a concentration of 1 μg/mL. The test antibodies were diluted in a gradient.

B1: Hab7C3C2.5 (antibody, human IgG1, kappa, L234A L235A, V domains shown)
VH: QVQLVQSGAEVKKPGASVKVSCKASGYTFTSYDINWVRQATGQGLEWIGWIYPRDGFTKYNEKFKGRVTLTVNTSISTAYMELSSLRSEDTAVYYCARKEGYRGDWYFDVWGQGTTVTVSS
VL: DIQMTQSPSSLSASVGDRVTITCRASGNVHNYLAWYQQKPGKAPKLLLYNAKTLASGVPSRFSGSGSGTDYTLTISSLQPEDFATYYCQHFWSTPWTFGGGTELEIKR
notes: Humanized 7C3C2; also called Hab7C3C.5
- EC50 [1]: 11.3 nM
- Protein enzymatic activity inhibition IC50 [2]: 0.018 nM
- EC50 [3]: 0.013 nM
- Kd [4]: 0.765 nM
- koff [4]: 0.00272 s⁻¹
- kon [4]: 3.56e+06 M⁻¹ s⁻¹
- binding result [5]: no binding

B2: Hab1F2F9.15 (antibody, human IgG1, kappa, L234A L235A, V domains shown)
VH: QVQLVQSGAEVKKPGASVKVSCKASGYTFTSYWMHWVRQAPGQRLEWMGNINPSNGGTKYSQKFQGRVTITVDTSASTAYMELSSLRSEDTAVYYCARRDYGSPSYWGQGTTVTVSS
VL: DIQMTQSPSSLSASVGDRVTITCKASQDINSYLTWFQQKPGKAPKSLIYRTNILLDGVPSRFSGSGSGTDYTLTISSLQPEDFATYYCLQYHEFPVTFGGGTKLEIKR
notes: Humanized 1F2F9; also called Huab1F2F9.15; HuablF2F9.15
- EC50 [1]: 1.51 nM
- Protein enzymatic activity inhibition IC50 [2]: 0.011 nM
- EC50 [3]: 0.011 nM
- Kd [4]: 0.779 nM
- koff [4]: 0.0016 s⁻¹
- kon [4]: 2.06e+06 M⁻¹ s⁻¹
- binding result [5]: no binding
